In experiment [1] the target is T1, hD1D2-CaM (human, UniProt Q9HCN6 21-205; P0DP23 2-149, limits assumed).
T1 construct: Residues are counted on mature GPVI, not on the precursor; also called rGPVI; recombinant GPVI
Nature of the experiment: resonant mirror biosensor, from response ratio against ratio of molecular masses.
Procedure: Binding studies and affinity measurements were conducted using a resonant mirror biosensor (Iasys, Thermolabsystems, Cambridge, UK). Using this system, one protein (the ligand) was immobilised to the mirrored surface of the cell of a cuvette. The cell contains a stirred volume of buffer to which aliquots of a second protein (the ligate) are then added. If the ligate binds or dissociates from the immobilised ligand, these changes are detected optically and give a reading in arc.sec−1 in real time. […] Here, BSA-N9A was covalently immobilised to a carboxymethyldextran surface using the manufacturer's instructions. The machine was then primed with TBS-TCa. A stirring speed of 100, cuvette temperature of 25° C. and reaction volume per cell of 50 μl were used in all experiments unless otherwise indicated. […] Several washes with TBS-TCa were made to remove unbound material from the cell. Then typically the wells were filled with 45 μl buffer to which was added further volumes of purified scFv (e.g. 5 μl) in HBS. The binding of scFv was measured in arc.sec⁻¹. The binding curves were analysed either by recording response at equilibrium versus time (for epitope mapping studies) or by calculating the initial rates of binding at different scFv concentrations using FastFit software (for affinity measurements).
ScFvs were added sequentially to saturation, without washing. […]

Experiment [2] has as its target T1, hD1D2-CaM. In words: resonant mirror biosensor, Cell 1.
Procedure: Here, BSA-N9A was covalently immobilised to a carboxymethyldextran surface using the manufacturer's instructions. The machine was then primed with TBS-TCa. A stirring speed of 100, cuvette temperature of 25° C. and reaction volume per cell of 50 μl were used in all experiments unless otherwise indicated. […] Several washes with TBS-TCa were made to remove unbound material from the cell. Then typically the wells were filled with 45 μl buffer to which was added further volumes of purified scFv (e.g. 5 μl) in HBS. The binding of scFv was measured in arc.sec⁻¹. The binding curves were analysed either by recording response at equilibrium versus time (for epitope mapping studies) or by calculating the initial rates of binding at different scFv concentrations using FastFit software (for affinity measurements).
Each scFv was then allowed to bind to saturation.
Experiment [3] deals with T2, hD1-CaM (human, UniProt Q9HCN6 21-109; P0DP23 2-149, limits assumed).
T2 construct: Residues counted on mature GPVI; also called isolated hD1
Nature of the experiment: screening ELISA. Background: In an ELISA, binding on a coated surface is turned into a signal by an enzyme label.

Experiment [4] concerns the target T3, mD1D2-CaM (murine, UniProt P0C191 22-206; P0DP23 2-149, limits assumed).
T3 construct: Residues counted from Q1 (mature protein); also called murine D1D2; mouse D1D2-CaM
Nature of the experiment: capture ELISA, purified scFv.

B1: scFv 1C3 (scFv, V domains shown)
VH: QVQLQQSGAEVKKPGESLKISCQASGYSFSSYWIAWVRQMPGKGLELMGIIYPGDSDARYSPSFQGQVTFSADKSINTAYLQWSSLKASDTAMYYCARQGKTGSYYFGAFDVWGQGTMVTVSS
VL: QSVLTQPPSMSAAPGQKVTISCTGTSSDVGGYNYVSWYQQHPGKAPKLMLFEVSHRPSGVSNRFSGSKSDNTASLTISGLQAEDEADYYCSSYTGSSTWVFGGGTKVTVL
notes: Human scFv from the Marks library; also called 1C3 scFv
With B1, in experiment [1], the “binding ratio (scFv to hD1D2)” value turned out to be 1. In experiment [2], the “ratio of responses 1C3: D1D2-CaM” value stood at 0.63. Moreover, the binding result in experiment [3] is “no binding”.

B2: scFv 10B12 (scFv, V domains shown)
VH: EVQLVQSGGGVVQPGGSLRLSCAASGFTFSSYGMHWVRQAPGKGLEWVAFIRYDGSNKYYADSVKGRFTISRDNSKNTLYLQMNSLRAEDTAVYYCTDGWAEMATTDDAFDIWGRGTMVTV
VL: DIQMTQSPSTLSASIGDRVTITCRASEGIYHWLAWYQQKPGKAPKLLIYKASSLASGAPSRFSGSGSGTDFTLTISSLQPDDFATYYCQQYSNYPLTFGGGTKLEIK
notes: Human scFv from the CaT (Vaughan) library; also called 10B12 scFv
In the case of B2, in experiment [1], the “binding ratio (scFv to hD1D2)” value is 1. In addition, the “ratio of responses 10B12: D1D2-CaM” value in experiment [2] worked out at 0.61. In addition, in experiment [4], the binding result is reported as “no binding (tested: 10 µg/ml)”.

The values are drawn from US20060088531A1 (CAMBRIDGE ENTERPRISE, published 2006).
